Assay results published in patent US20100190682A1, “USE OF PROTEIN HYDROLYSATES TO STABILIZE METALLOPROTEASE DETERGENT FORMULATIONS” (priority 2007, published 2010).

Assays:
[1] = in the presence of zinc ion concentrations lower than 15 mM; cited from earlier work
[2] = NprE stability at different storage concentrations (AGLA activity over time); assay type: physicochemical
Experimental: Samples were prepared containing the neutral metalloprotease, NprE, at a range of concentrations from 625 to 10000 ppm in 10 mM HEPES (N-(2-Hydroxyethyl)piperazine-N′-(2-ethanesulfonic acid)) buffer at pH 8.0. All samples, except the one control at 625 ppm NprE concentration, included 10% PPG and 0.5 mM CaCl2. All samples were incubated at a temperature of 32° C. over a period of 6 hours. NprE activity of the samples was measured using the AGLA activity assay at various time points.

NprE = molecular target: T1, NprE (Bacillus amyloliquefaciens, UniProt P06832); assay: Remaining AGLA activity of NprE stability assay samples in DW-CT HDL detergent formulation; assay type: biochemical; details: no inhibitor; 2 mg/mL NprE incubated in HDL detergent formulation DW-CT, 32° C.
T1 construct: made in house; host or cells: Bacillus subtilis
T1 sequence (P06832 222-521): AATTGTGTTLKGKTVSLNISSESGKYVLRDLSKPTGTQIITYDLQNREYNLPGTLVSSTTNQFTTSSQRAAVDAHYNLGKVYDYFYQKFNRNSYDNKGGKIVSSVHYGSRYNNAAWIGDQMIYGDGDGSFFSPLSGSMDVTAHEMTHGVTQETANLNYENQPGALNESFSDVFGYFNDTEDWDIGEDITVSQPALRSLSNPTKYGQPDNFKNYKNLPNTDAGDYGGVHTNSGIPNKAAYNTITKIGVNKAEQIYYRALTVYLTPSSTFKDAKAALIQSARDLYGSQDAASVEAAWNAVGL
Experimental: The HDL detergent formulation used in this example was: DW-CT. This formulation has a 37% water content and was designed to make up to 90% by volume with 10% room (by volume) to add ingredients such as stabilizers or enzymes.
Assays were carried out using a 10% DW-CT detergent formulation made by mixing 5 mL of DW-CT (prepared as in Table 1), 1 mL of 500 mM HEPES at pH 8.0, and 44 mL distilled water.
Stability assay samples were prepared using five different candidate protein hydrolysates, as well as a control with no inhibitor added.
In general, 20 μL of inhibitor stock solution was pre-mixed with 10 μL of 50 mg/mL NprE stock solution. Then, 220 μL of 10% DW-CT detergent formulation in 10 mM HEPES was added to each sample so that the final NprE concentration was 2 mg/mL. Samples were incubated at 32° C. in a microtiter plate in a Thermomixer (Eppendorf).
The final concentration of enzyme in each sample was 2 mg/mL NprE. The final inhibitor concentrations in their respective samples were: 5.6 mg/mL of Amisoy, Amicase, HyPep 4601, or Proteose Peptone, respectively; or 7.2 mM of the casein hydrolysis product mixture (based on 12.5-fold dilution). […]
Remaining NprE activity of each of stability assay samples (prepared as above) was measured at various time points using the general AGLA activity assay except that the assay solution used was 50 mM MES, 2.5 mM CaCl2, 0.005% Tween 80 at pH 6.5.

Substance: NprE: recombinant neutral metalloprotease: Bacillus amyloliquefaciens neutral metalloprotease cloned into Bacillus subtilis
- stability period under detergent formulation conditions [1]: approximately 4 weeks
- NprE activity maintained for 1.5 hours ([2]; 10,000 μg/mL (or ppm) NprE, 10% PPG, 0.5 mM CaCl2, 10 mM HEPES pH 8.0, 32° C.): almost full activity
- NprE activity at 1.5 hr ([2]; 625, 1250 and 2500 ppm NprE, 10% PPG, 0.5 mM CaCl2, 10 mM HEPES pH 8.0, 32° C.): ~60%
- NprE activity over time, control sample ([2]; 625 ppm NprE, no added PPG or CaCl2, 10 mM HEPES pH 8.0, 32° C.): lost nearly all of its activity within the first 2 hours
- loss of original NprE activity in about an hour (NprE): more than 80%
